Results: paper PMC4259882

Assays:
FadR K113 (W60G) [1] = molecular target: T1, FadR K113 (W60G) (Escherichia coli strain K113, UniProt P0A8V6 1-239, W60G); assay: EMSA; up to 2 pmol protein; Roche DIG gel shift binding buffer (composition not stated), 15 min, room temperature; 0.1 pmol (Fig. 3) or 0.2 pmol (Fig. 6) probe; 7-7.5% native PAGE
FadR WT [2] = molecular target: T2, FadR WT (Escherichia coli K12, UniProt P0A8V6 1-239); assay: EMSA; Roche DIG gel shift binding buffer (composition not stated), 15 min, room temperature; 0.1 pmol (Fig. 3) or 0.2 pmol (Fig. 6) probe; 7-7.5% native PAGE
FadR WT [3] = molecular target: T2, FadR WT; assay: EMSA; dose-dependent, 0.05-10 pmol protein; Roche DIG gel shift binding buffer (composition not stated), 15 min, room temperature; 0.1 pmol (Fig. 3) or 0.2 pmol (Fig. 6) probe; 7-7.5% native PAGE
FadR F74G/W75G = FadR F74G/W75G (Escherichia coli K12, UniProt P0A8V6 1-239, F74G;W75G); assay: EMSA; up to 10 pmol protein; Roche DIG gel shift binding buffer (composition not stated), 15 min, room temperature; 0.1 pmol (Fig. 3) or 0.2 pmol (Fig. 6) probe; 7-7.5% native PAGE
FadR K113 (W60G) [4] = molecular target: T1, FadR K113 (W60G); assay: as above
FadR F74G = FadR F74G (Escherichia coli K12, UniProt P0A8V6 1-239, F74G); assay: as above
FadR W75G = FadR W75G (Escherichia coli K12, UniProt P0A8V6 1-239, W75G); assay: as above

B1: fabB probe (dsDNA)
DNA 1: TCTATTAAATGGCTGATCGGACTTGTTCGGCGTACAAGTGTACGCTATTGTGCATTC
DNA 2: GAATGCACAATAGCGTACACTTGTACGCCGAACAAGTCCGATCAGCCATTTAATAGA
- binding result (FadR K113 (W60G) [1]): no binding
- binding result (FadR WT [2]): binds

B2: fadD probe 1 (dsDNA)
DNA 1: GAAACAGCGGCTGGTCCGCTGTTTCTGCATTCT
DNA 2: AGAATGCAGAAACAGCGGACCAGCCGCTGTTTC
- binding result (FadR K113 (W60G) [1]): no binding
- binding result (FadR WT [2]): binds

B3: fadL probe 2 (dsDNA)
DNA 1: CTCTCGCCACTGGTCTGATTTCTAAGATGTACCTC
DNA 2: GAGGTACATCTTAGAAATCAGACCAGTGGCGAGAG
- binding result (FadR K113 (W60G) [1]): no binding
- binding result (FadR WT [2]): binds

B4: fadBA probe (dsDNA)
DNA 1: ACTTCGACTCATCTGGTACGACCAGATCACCTTGCGG
DNA 2: CCGCAAGGTGATCTGGTCGTACCAGATGAGTCGAAGT
- binding result (FadR K113 (W60G) [1]): no binding
- binding result (FadR WT [2]): binds

B5: fabA probe (dsDNA)
DNA 1: TTTATTCCGAACTGATCGGACTTGTTCAGCGTACACGTGTTAGCTATCCTGCGTGC
DNA 2: GCACGCAGGATAGCTAACACGTGTACGCTGAACAAGTCCGATCAGTTCGGAATAAA
- binding result (FadR K113 (W60G) [1]): no binding
- binding result (FadR WT [2]): binds

B6: fadL probe 1 (dsDNA)
DNA 1: GCAACATTCCAGCTGGTCCGACCTATACTCTCGCC
DNA 2: GGCGAGAGTATAGGTCGGACCAGCTGGAATGTTGC
- binding result (FadR K113 (W60G) [1]): no binding
- binding result (FadR WT [2]): binds

B7: fadD probe 2 (dsDNA)
DNA 1: GTAATTATCAAGCTGGTATGATGAGTTAATATTATG
DNA 2: CATAATATTAACTCATCATACCAGCTTGATAATTAC
- binding result (FadR WT [3]): binds
- binding result (FadR F74G/W75G): no binding
- binding result (FadR K113 (W60G) [4]): no binding
- binding result (FadR F74G): no binding
- binding result (FadR W75G): no binding
